This is an account of results in article PMC11573620 (Molecular Therapy, 2024).

This assay deals with T1, human CD155 extracellular domain fused to mouse Fc (human, UniProt P15151 21-343).
T1 sequence (looked up): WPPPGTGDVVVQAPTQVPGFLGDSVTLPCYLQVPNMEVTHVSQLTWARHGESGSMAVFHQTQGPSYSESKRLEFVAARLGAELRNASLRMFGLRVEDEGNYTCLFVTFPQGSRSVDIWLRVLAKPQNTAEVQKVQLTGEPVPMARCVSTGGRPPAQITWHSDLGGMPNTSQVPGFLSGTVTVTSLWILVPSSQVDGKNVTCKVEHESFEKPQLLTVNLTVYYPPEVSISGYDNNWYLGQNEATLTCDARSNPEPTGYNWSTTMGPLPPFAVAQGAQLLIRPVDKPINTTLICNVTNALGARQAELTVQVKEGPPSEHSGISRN
Description: ELISA. A general note: ELISA stands for enzyme-linked immunosorbent assay.

B1: human TIGIT extracellular domain, biotinylated (domain or fragment, UniProt Q495A1 22-141, looked up)
chain: MMTGTIETTGNISAEKGGSIILQCHLSSTTAQVTQVNWEQQDQLLAICNADLGWHISPSFKDRVAPGPGLGLTLQSLTVNDTGEYFCIYHTYPDGTYTGRIFLEVLESSVAEHGARFQIP
modifications: biotin
For the molecule B1, the binding result is given as “binds”.
